Results published in the nanobody polyreactivity screen of Harvey et al. (2022).

Assay: yeast display, Sf9 membrane polyspecificity reagent, FACS + sequencing; frameworks hold sequencing errors
How it was run: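 In a synthetic yeast display library (Saccharomyces cerevisiae BJ5465), nanobody expression was induced with galactose for 36–48 hours. FACS gates were set low and high (top ~1%) using anti-HA fluorescence for expression and streptavidin fluorescence for binding of the Sf9 membrane reagent. Each polyreactivity label is drawn from the gate of origin.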

Sequence	polyreactivity (PSR sort gate)
QVQLVESGGGLVQAGGSLRLSCAASGSIFSSYAMGWYRQAPGKERELVAAISQSGGDTYYADSVKGRFTISRDNAKYTVYLQMNSLKPDDTAVYYCAASVWYFPMDYWGQGTQLTVSS	low polyreactivity
QVQLVESGGGLVQAGGSLRLSCAASGSIFSSYAMGWYRQAPGKERELVAAISSGGITYYADSVKGRFTISRDNAKNTVYLQMNSLKPEDTAVYYCAAVRRRGTTYDYWGQGTQVTVSS	high polyreactivity
QVQLVESGGGLVQAGGSLRLSCAASGSIFSSYAMGWYRQAPGKERELVAAISTAGSTNYADSVKGRFTISRDNAKNTVYLQINSLKPEDTAVYYCAADSGDQQSYGLDLNHDFDYWGQGSQVTVSS	low polyreactivity
QVQLVESGGGLVQAGGSLRLSCAASGSIFSSYAMGWYRQAPGKERELVATITSSGGSTYYADSVKGRFTISRDNAKNTVYLQMNSLKPADTAVYYCAASYHTSYSLRRYYYWGQGTQVTVSS	low polyreactivity
QVQLVESGGGLVQAGGSLRLSCAASGSIFSSYAMGWYRQAPGKERELVATITSSGGSTYYADSVKGRFTISRDNAKNTVYLQMNSLKPEVTAVYYCAASYHTSYSLRSYYYWGQGTQVTVSS	low polyreactivity
QVQLVESGGGLVQAGGSLRLSCAASGSIFSSYAMGWYRQAPGKERELVAVINSGGSTNYADSVKGRFTISRDNAKNSVYVQMKSLKPEDTAVYYCNAYGGTFHNTAAEFDYWRQGTQVTVSS	low polyreactivity
QVQLVESGGGLVQAGGSLRLSCAASGSIFSSYGMGWYRQAPGKERELVATITGSGGSTYYSDSVKGRLTISRVNAKNTVYLQMNSLKPEDTAVYYCATRLGWFVKYYTGRYYYWGQGTQVTVSS	high polyreactivity
QVQLVESGGGLVQAGGSLRLSCAASGSIFSTNAIGGYRQAPGTQRELVAVITGIGGITYYADSVKGRFTISRDNAKKTVYLQRNSLKPDDTAVYYCADDPISEFSWGVKDRYDYWGQGTQVTVSS	low polyreactivity
QVQLVESGGGLVQAGGSLRLSCAASGSIFSTNDRGWYRQAPGKERELVAAISVSGGSTYYADSVKGRFTISRDNAKNTVYLQMNSLKPEDTAVYYCNADYTRGTMYYWGQGTQVTVSS	low polyreactivity
QVQLVESGGGLVQAGGSLRLSCAASGSIFSTYAIVWYRQAPGKERELVAAISVSGGRTYYADSVKGRFTISRDNAKYTVYLQMNSLKPEDTAVYYCNAYPFWRDYDYWGQGTQVTVSS	high polyreactivity
QVQLVESGGGLVQAGGSLRLSCAASGSIFSTYAMGWYRQAPVKERELVAAINSGDSTSYADSVKGRFTISRDNAKNTVYLQMNSLKPEDTAVYYCAAKTGGYWYLRRTARYESWGQGTQVTVSS	low polyreactivity
QVQLVESGGGLVQAGGSLRLSCAASGSIFSTYTMGWYRQAPGTERELVAAITRSGGSTYNADSVKGRFTISRDNAKNTVYLQMNSLKPEDTAVYYCAARWKFPSSFYYWGQGTQVTVSS	high polyreactivity
QVQLVESGGGLVQAGGSLRLSCAASGSIFSVNAMGWYRQAPGTEREFVASINFRGGRTYYADSVKGRFRISRDNAKNTVYLQMNCLKPEDTADYYCAAVITLTDTGYGPSFRVFYWGQGTQVTVSS	high polyreactivity
QVQLVESGGGLVQAGGSLRLSCAASGSIFSVNTMGWYRQAPGKERELVAAISGSGGSTYYADSVKGRFTISRDNATNPVYLQMNSLKPEETAVYYCAKVYRRGAGYNYWGQGTQVTVSS	high polyreactivity
QVQLVESGGGLVQAGGSLRLSCAASGSIFSVNTMGWYRQAPGKQRELVAAISESGDGTYYADSVKGRFTISRDNAKNTVYLQMNSLKPEDTAVYYCNADRQKGGGYYPHEFDYWGQGTQVTVSS	low polyreactivity
QVQLVESGGGLVQAGGSLRLSCAASGSIFSVYAMGWYRQAPGKERELVAAITSGTSTYADSVKGRFTISRDNAKNTVYLQMNSLKPEDTAVYYCAAESGSPGYYYWGQGTQVTVSS	low polyreactivity
QVQLVESGGGLVQAGGSLRLSCAASGSIFSVYDMGWYRQAPGKERELVAAISRSGGSTYYADSVKGRFTISRDNAKNTVYLQRNSLKPEDTAVYYCNAVRRTGGHGDYWGQGTQVTVSS	high polyreactivity
